These are literature values, as cited in paper PMC4463550.

For data set [1], the target named is PAD4 (Homo sapiens) (UniProt Q9UM07).
The target in data set [2] is Cys647 (UniProt position 647, LGEVHCGTNVR). Briefly: chemical modification. Particulars: calcium state not stated.
Data set [3] addresses Cys645 (UniProt position 645, HGEVHCGTNVR). Briefly: chemical modification. The following applies: PAD4, no substrate; calcium state not stated.
The target in data set [4] is His471 (UniProt position 471, WLSVGHVDEFL). Particulars: PAD4; state not stated.

Sequence of PAD4 (Q9UM07 whole entry): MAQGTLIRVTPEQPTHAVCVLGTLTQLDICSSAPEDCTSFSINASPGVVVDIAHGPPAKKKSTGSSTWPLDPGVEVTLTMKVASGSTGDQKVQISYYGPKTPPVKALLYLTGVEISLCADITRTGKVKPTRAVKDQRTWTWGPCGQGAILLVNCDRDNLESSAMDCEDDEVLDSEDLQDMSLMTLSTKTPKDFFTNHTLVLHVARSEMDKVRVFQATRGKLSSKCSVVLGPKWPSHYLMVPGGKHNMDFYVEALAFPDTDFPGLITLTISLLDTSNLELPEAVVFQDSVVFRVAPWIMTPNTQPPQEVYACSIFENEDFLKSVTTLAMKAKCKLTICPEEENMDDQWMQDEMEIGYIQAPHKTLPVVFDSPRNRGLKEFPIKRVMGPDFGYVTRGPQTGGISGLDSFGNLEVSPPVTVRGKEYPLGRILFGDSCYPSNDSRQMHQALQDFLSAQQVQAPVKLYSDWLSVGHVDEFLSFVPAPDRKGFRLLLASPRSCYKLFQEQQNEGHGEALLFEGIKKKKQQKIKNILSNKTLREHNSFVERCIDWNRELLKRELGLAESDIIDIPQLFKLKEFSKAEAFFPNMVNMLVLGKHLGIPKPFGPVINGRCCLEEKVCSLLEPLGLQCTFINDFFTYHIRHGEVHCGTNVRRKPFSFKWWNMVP

A word on the Kd: it is the free concentration of one partner at which half of the binding sites on the other are occupied at equilibrium, for simple one-to-one binding. PAD4 (from UniProt Q9UM07): the Kd in data set [1] was 0.45 µM. Usually pKa stands for the pH at which an ionisable group is half protonated. Regarding “Protein arginine deiminase 2 (PAD2) (Homo sapiens)”, the pKa in data set [2] (PAD2, no substrate) is on record as 8.2; in data set [2] (PAD2 reacting with the substrate-mimicking, positively charged inactivator 2-chloroacetamidine), 7.2. Turning to “Protein arginine deiminase 4 (PAD4) (Homo sapiens)”, the results for the pKa result in data set [3] and in data set [4] were “≈ 8.3” and “∼7.3”, respectively.
